Tested on: CC(=O)Oc1ccc([N+](=O)[O-])cc1
Experiment: purified protein
Conditions: PBS, 37 °C, 0.25 mg/mL enzyme

Substance: Lsa45 (Leptospiral surface adhesin of 45 kDa) (Leptospira interrogans serovar Copenhageni str. Fiocruz L1-130)
- Km: 849.3 ± 15.30 µM
- Vmax: 219 µM/min
